According to paper PMC12748787 (Communications Biology, 2025):
Numbering of substitutions follows the chain as printed. Names may count otherwise.

T1: JPH2 MORN-Helix (as used in SEC-MALS) (mouse, UniProt Q9ET78 1-440, Δ176-273)
T1 sequence (looked up): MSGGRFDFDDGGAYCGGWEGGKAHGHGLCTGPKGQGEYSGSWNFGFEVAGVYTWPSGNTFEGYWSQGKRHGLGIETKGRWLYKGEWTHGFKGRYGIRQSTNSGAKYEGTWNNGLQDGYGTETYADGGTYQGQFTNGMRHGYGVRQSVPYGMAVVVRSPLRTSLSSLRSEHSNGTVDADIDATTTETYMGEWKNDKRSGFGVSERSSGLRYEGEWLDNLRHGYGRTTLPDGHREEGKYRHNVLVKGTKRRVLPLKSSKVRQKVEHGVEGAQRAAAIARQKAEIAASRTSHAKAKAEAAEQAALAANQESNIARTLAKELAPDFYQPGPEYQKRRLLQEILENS

T2: MBP-Mus_JPH1 NT WT (mouse, UniProt Q9ET80 1-436)
T2 sequence (looked up): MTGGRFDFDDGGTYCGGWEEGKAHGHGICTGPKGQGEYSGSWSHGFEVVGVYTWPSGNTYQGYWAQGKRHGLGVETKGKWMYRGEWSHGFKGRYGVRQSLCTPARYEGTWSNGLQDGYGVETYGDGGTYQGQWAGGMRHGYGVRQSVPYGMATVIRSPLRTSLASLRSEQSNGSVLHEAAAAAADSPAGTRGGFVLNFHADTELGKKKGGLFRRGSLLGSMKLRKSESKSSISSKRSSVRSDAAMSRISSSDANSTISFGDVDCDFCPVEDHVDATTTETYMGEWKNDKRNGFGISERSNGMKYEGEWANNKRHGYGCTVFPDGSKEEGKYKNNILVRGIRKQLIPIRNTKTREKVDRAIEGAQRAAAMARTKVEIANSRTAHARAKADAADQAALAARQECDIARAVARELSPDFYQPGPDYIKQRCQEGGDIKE

T3: MBP-JPH2 MORN-Helix (mouse, UniProt Q9ET78 1-440, Δ176-273)
T3 sequence (looked up): T1 sequence (looked up)

T4: MBP-Mus_JPH3 NT WT (mouse, UniProt Q9ET77 1-446)
T4 sequence (looked up): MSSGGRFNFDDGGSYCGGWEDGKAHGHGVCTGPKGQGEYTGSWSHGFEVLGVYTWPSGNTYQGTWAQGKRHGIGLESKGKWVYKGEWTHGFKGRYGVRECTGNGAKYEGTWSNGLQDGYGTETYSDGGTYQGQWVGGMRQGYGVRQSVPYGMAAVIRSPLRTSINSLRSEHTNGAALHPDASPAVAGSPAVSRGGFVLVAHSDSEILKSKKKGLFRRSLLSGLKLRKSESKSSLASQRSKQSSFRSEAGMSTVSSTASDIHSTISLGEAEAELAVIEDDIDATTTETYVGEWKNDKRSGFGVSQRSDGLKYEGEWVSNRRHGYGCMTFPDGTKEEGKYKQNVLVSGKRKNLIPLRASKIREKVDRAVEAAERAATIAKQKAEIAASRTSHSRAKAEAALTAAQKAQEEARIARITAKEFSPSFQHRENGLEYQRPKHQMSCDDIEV

T5: MBP-JPH2 NT (mouse, wild type) (mouse, UniProt Q9ET78 1-440)
T5 sequence (looked up): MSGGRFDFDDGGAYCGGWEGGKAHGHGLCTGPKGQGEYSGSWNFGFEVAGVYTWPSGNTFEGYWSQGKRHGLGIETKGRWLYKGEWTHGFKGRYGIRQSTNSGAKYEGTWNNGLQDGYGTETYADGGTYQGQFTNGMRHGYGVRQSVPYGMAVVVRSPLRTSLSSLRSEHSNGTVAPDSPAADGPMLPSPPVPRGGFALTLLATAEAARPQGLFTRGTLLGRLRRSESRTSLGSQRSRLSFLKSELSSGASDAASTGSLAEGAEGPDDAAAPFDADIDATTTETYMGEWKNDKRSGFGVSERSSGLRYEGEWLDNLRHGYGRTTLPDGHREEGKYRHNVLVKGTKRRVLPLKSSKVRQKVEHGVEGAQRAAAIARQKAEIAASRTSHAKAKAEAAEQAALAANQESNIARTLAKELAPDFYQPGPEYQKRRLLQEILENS

B1: JPH2 NT S165I (domain or fragment, mouse, UniProt Q9ET78 1-440, looked up)
chain: T5 sequence (looked up) with S165I
B2: JPH2 NT (mouse, wild type, as used in SEC-MALS) (domain or fragment, UniProt Q9ET78 1-440, looked up)
chain: T5 sequence (looked up)
B3: MBP-JPH2 NT S165Y (domain or fragment, mouse, UniProt Q9ET78 1-440, looked up)
chain: T5 sequence (looked up) with S165Y
B4: JPH2 NT S165L (domain or fragment, mouse, UniProt Q9ET78 1-440, looked up)
chain: T5 sequence (looked up) with S165L
B5: CaV1.2 JBM (as used in SEC and SEC-MALS) (domain or fragment)
chain: not shown
B6: Trx-CaV1.2 JBM (domain or fragment)
chain: not shown

Columns and labels:
Trx-CaV1.2 JBM = target: B6; test: ITC
[1] = target: B5; test: SEC-MALS
[2] = target: T1, JPH2 MORN-Helix (as used in SEC-MALS); test: SEC-MALS
MBP-Mus_JPH1 NT WT = target: T2, MBP-Mus_JPH1 NT WT; test: ITC
MBP-JPH2 MORN-Helix = target: T3, MBP-JPH2 MORN-Helix; test: ITC
MBP-Mus_JPH3 NT WT = target: T4, MBP-Mus_JPH3 NT WT; test: ITC
[3] = target: T5, MBP-JPH2 NT (mouse, wild type); test: ITC

Chain of Trx-CaV1.2 JBM (Q01815 1647-1777): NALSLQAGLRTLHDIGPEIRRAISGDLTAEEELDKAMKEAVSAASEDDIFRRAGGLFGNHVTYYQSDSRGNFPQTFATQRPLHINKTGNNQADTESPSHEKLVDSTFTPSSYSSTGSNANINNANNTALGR

Binder: B1
fold decrease in affinity against the wild type (Trx-CaV1.2 JBM): 2 fold

Binder: B2
stoichiometry N [1]: 1

Binder: B3
fold weakening of the binding against the wild type (Trx-CaV1.2 JBM): ~3 fold

Binder: B4
fold decrease in affinity against the wild type (Trx-CaV1.2 JBM): 2 fold

Binder: B5
binding result [2]: binds

Binder: B6
Kd (MBP-Mus_JPH1 NT WT): 5.54 ± 0.71 µM | binding result (MBP-JPH2 MORN-Helix): binds | Kd (MBP-Mus_JPH3 NT WT): 5.82 ± 0.36 µM | Kd [3]: ~6.04 µM
